Source: the supplement of paper PMC9233669
Variants at the floor of the assay were thinned out.

Assays:
biotinyl-Phe-oxazolone = assay: self-aminoacylation, catalytic enhancement (BFO) (fold over background); higher = more active; k-Seq, kA / k0A0; sequences stand for … in GGGAAUGGAUCCACAUCUACGAAUUC…UUCACUGCAGACUUGACGAAGCUG
How it was run: (§1)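 The uncatalyzed rate is the low-activity peak of a bimodal Gaussian fit, and catalytic enhancement is median kA divided by it. The kA values came from pseudo-first-order fits, with 1000 bootstraps, of per-sequence fraction reacted measured by streptavidin capture, triplicate qPCR and Illumina sequencing. Mutagenized RNA pools with a 21-nt variable region (0.43 μM) were reacted with each biotinyl-aminoacyl-oxazolone at 2–1250 μM in 50 μL HEPES/NaCl/KCl/MgCl2/CaCl2 buffer with 5% acetonitrile, pH 6.9–7.0, for 90 minutes at room temperature.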

biotinyl-Ile-oxazolone = assay: self-aminoacylation, catalytic enhancement (BIO) (fold over background); higher = more active; k-Seq, kA / k0A0; sequences stand for … in GGGAAUGGAUCCACAUCUACGAAUUC…UUCACUGCAGACUUGACGAAGCUG
How it was run: as §1

biotinyl-Met-oxazolone = assay: self-aminoacylation, catalytic enhancement (BMO) (fold over background); higher = more active; k-Seq, kA / k0A0; sequences stand for … in GGGAAUGGAUCCACAUCUACGAAUUC…UUCACUGCAGACUUGACGAAGCUG
How it was run: as §1

biotinyl-Val-oxazolone = assay: self-aminoacylation, catalytic enhancement (BVO) (fold over background); higher = more active; k-Seq, kA / k0A0; sequences stand for … in GGGAAUGGAUCCACAUCUACGAAUUC…UUCACUGCAGACUUGACGAAGCUG
How it was run: as §1

biotinyl-Leu-oxazolone = assay: self-aminoacylation, catalytic enhancement (BLO) (fold over background); higher = more active; k-Seq, kA / k0A0; sequences stand for … in GGGAAUGGAUCCACAUCUACGAAUUC…UUCACUGCAGACUUGACGAAGCUG
How it was run: as §1

biotinyl-Trp-oxazolone = assay: self-aminoacylation, catalytic enhancement (BWO) (fold over background); higher = more active; k-Seq, kA / k0A0; sequences stand for … in GGGAAUGGAUCCACAUCUACGAAUUC…UUCACUGCAGACUUGACGAAGCUG
How it was run: as §1

Row | Sequence | self-aminoacylation (biotinyl-Phe-oxazolone) | self-aminoacylation (biotinyl-Ile-oxazolone) | self-aminoacylation (biotinyl-Met-oxazolone) | self-aminoacylation (biotinyl-Val-oxazolone) | self-aminoacylation (biotinyl-Leu-oxazolone) | self-aminoacylation (biotinyl-Trp-oxazolone)
1 | AUUCACCUUGGUCAUCGGGUU [Fam2.2 aminoacylation ribozyme variant] | 8.05 | 1.67 | 1.84 | 2.08 | 2.38 | 2.14
2 | AUUCACCUUGGUCAUGGGGUG [Fam2.2 aminoacylation ribozyme variant] | 26.8 | 2.91 | 4.32 | 3.36 | 6.08 | 4.27
3 | AUUCACCUUGGUCAUUGGGUG [Fam2.2 aminoacylation ribozyme variant] | 21.4 | 2.11 | 2.9 | 2.17 | 3.56 | 3.18
4 | AUUCACCUUGGUCUUCGGGUG [Fam2.2 aminoacylation ribozyme variant] | 37.3 | 3.75 | 4.81 | 4.25 | 6.07 | 5.01
5 | AUUCACGCAGGUCAUCGGGUG [Fam2.2 aminoacylation ribozyme variant] | 41.6 | 3.54 | 4.55 | 4.58 | 4.77 | 5.58
6 | AUUCACGUAGAUCAUCGGGUG [Fam2.2 aminoacylation ribozyme variant] | 29.6 | 4.08 | 5.1 | 3.9 | 5.42 | 4.96
7 | AUUCACGUAGGUCAUCGGUUG [Fam2.2 aminoacylation ribozyme variant] | 4.98 | 1.2 | 1.23 | 1.24 | 1.35 | 0.72
8 | AUUCACGUAGGUCAUCGUGUG [Fam2.2 aminoacylation ribozyme variant] | 7.45 | 1.15 | 1.57 | 1.28 | 1.82 | 1.79
9 | AUUCACGUAGGUCGUCGGGUG [Fam2.2 aminoacylation ribozyme variant] | 9.34 | 2.61 | 2.48 | 3.81 | 2.35 | 2.44
10 | AUUCACGUAGUUCAUCGGGUG [Fam2.2 aminoacylation ribozyme variant] | 21.9 | 3.07 | 3.49 | 3.45 | 3.88 | 4.72
11 | AUUCACGUAUGUCAUCGGGUG [Fam2.2 aminoacylation ribozyme variant] | 73.5 | 5.2 | 8.47 | 5.58 | 9.38 | 7.42
12 | AUUCACGUCGGUCAUCGGGUG [Fam2.2 aminoacylation ribozyme variant] | 54.3 | 3.75 | 5.7 | 5.95 | 5.21 | 6.46
13 | AUUCACGUGGGUCAUCGGGUG [Fam2.2 aminoacylation ribozyme variant] | 94 | 5.57 | 9.61 | 8.26 | 7.84 | 9.93
14 | AUUCACGUUGGUCAUCGGGUG [Fam2.2 aminoacylation ribozyme variant] | 121 | 6.91 | 12.5 | 8 | 12.2 | 10.1
15 | AUUCACUCAGGUCAUCGGGUG [Fam2.2 aminoacylation ribozyme variant] | 41.3 | 3.48 | 4.85 | 4.16 | 6.71 | 4.79
16 | AUUCACUUAGGCCAUCGGGUG [Fam2.2 aminoacylation ribozyme variant] | 16 | 2.53 | 3.04 | 2.65 | 3.9 | 3.26
17 | AUUCACUUAGGUCACCGGGUG [Fam2.2 aminoacylation ribozyme variant] | 28.2 | 3.47 | 4.86 | 3.33 | 5.15 | 5.19
18 | AUUCACUUAGGUCAUCCGGUG [Fam2.2 aminoacylation ribozyme variant] | 43.4 | 4.64 | 6.26 | 4.72 | 8.78 | 6.84
19 | AUUCACUUAGGUCAUCGGGUU [Fam2.2 aminoacylation ribozyme variant] | 6.63 | 1.59 | 1.78 | 1.65 | 1.69 | 1.47
20 | AUUCACUUCGGUCAUCGGGUG [Fam2.2 aminoacylation ribozyme variant] | 55.8 | 5.12 | 7.48 | 5.73 | 10.1 | 7.68
21 | AUUCAGCGAGGUCAUCGGGUG [Fam2.2 aminoacylation ribozyme variant] | 44 | 4.46 | 6 | 5.33 | 7.8 | 7.06
22 | AUUCAGCUAGCUCAUCGGGUG [Fam2.2 aminoacylation ribozyme variant] | 20.2 | 2.69 | 3.07 | 3.41 | 3.86 | 3.74
23 | AUUCAGCUAGGUCAGCGGGUG [Fam2.2 aminoacylation ribozyme variant] | 21.8 | 2.71 | 3.79 | 2.53 | 4.01 | 4.28
24 | AUUCAGCUAGGUCAUCGGCUG [Fam2.2 aminoacylation ribozyme variant] | 11.6 | 1.63 | 1.55 | 1.86 | 1.52 | 2.02
25 | AUUCAGCUAGGUCAUCGGGUU [Fam2.2 aminoacylation ribozyme variant] | 18.7 | 2.81 | 3.1 | 2.79 | 2.5 | 3.38
26 | AUUCAGCUAGGUCAUCGGUUG [Fam2.2 aminoacylation ribozyme variant] | 5.67 | 0.882 | 1.16 | 0.865 | 1.07 | 1.25

Row | Sequence | self-aminoacylation (biotinyl-Phe-oxazolone) | self-aminoacylation (biotinyl-Ile-oxazolone) | self-aminoacylation (biotinyl-Met-oxazolone) | self-aminoacylation (biotinyl-Val-oxazolone) | self-aminoacylation (biotinyl-Leu-oxazolone) | self-aminoacylation (biotinyl-Trp-oxazolone)
27 | AUUCAGCUAGGUCUUCGGGUG [Fam2.2 aminoacylation ribozyme variant] | 36.2 | 4.2 | 5.01 | 4.24 | 5.34 | 4.96
28 | AUUCAUCUAGGUCAUCGAGUG [Fam2.2 aminoacylation ribozyme variant] | 4.08 | 2.63 | 3.88 | 2.38 | 4.86 | 3.67
29 | AUUCAUCUAGGUCAUCGGUUG [Fam2.2 aminoacylation ribozyme variant] | 1.07 | 1.15 | 1.25 | 1.24 | 1.3 | 1.13
30 | AUUCAUCUAGGUGAUCGGGUG [Fam2.2 aminoacylation ribozyme variant] | 20.3 | 2.4 | 2.85 | 2.54 | 3.57 | 3.76
31 | AUUCAUCUAGUUCAUCGGGUG [Fam2.2 aminoacylation ribozyme variant] | 12.6 | 2.13 | 2.83 | 2.21 | 3.27 | 3.1
32 | AUUCCACUAGGUCAUCGGGUG [Fam2.2 aminoacylation ribozyme variant] | 77.2 | 6.56 | 9.49 | 6.23 | 14.2 | 8.98
33 | AUUCCACUGGUCAUCGAGUGA [Fam2.1 aminoacylation ribozyme variant] | 28.1 | 3.72 | 5.86 | 3.82 | 6.67 | 7.09
34 | AUUCCCCAAGGUCAUCGGGUG [Fam2.2 aminoacylation ribozyme variant] | 218 | 15.9 | 27 | 14.8 | 31.1 | 20.9
35 | AUUCCCCCGGUCAUCGAGUGA [Fam2.1 aminoacylation ribozyme variant] | 59.9 | 4.4 | 8.57 | 4.37 | 8.86 | 10.7
36 | AUUCCCCUAGCUCAUCGGGUG [Fam2.2 aminoacylation ribozyme variant] | 35.1 | 6.15 | 5.75 | 6.05 | 6.66 | 5.96
37 | AUUCCCCUAGGUCAUCCGGUG [Fam2.2 aminoacylation ribozyme variant] | 295 | 27.6 | 38.5 | 26.9 | 51.5 | 39.5
38 | AUUCCCCUAGGUCAUCGGAUG [Fam2.2 aminoacylation ribozyme variant] | 2.14 | 3.04 | 2.88 | 3.49 | 3.28 | 4.36
39 | AUUCCCCUAGGUCAUCGGGUA [Fam2.2 aminoacylation ribozyme variant] | 58.9 | 7.47 | 7.28 | 7.57 | 8.16 | 10.2
40 | AUUCCCCUAGGUCAUCUGGUG [Fam2.2 aminoacylation ribozyme variant] | 107 | 10.6 | 14.7 | 9.58 | 18.8 | 15.3
41 | AUUCCCCUGCUCAUCGAGUGA [Fam2.1 aminoacylation ribozyme variant] | 2.12 | 1.54 | 1.53 | 1.51 | 1.89 | 1.06
42 | AUUCCCCUGGUCAGCGAGUGA [Fam2.1 aminoacylation ribozyme variant] | 39.5 | 3.66 | 5.69 | 4.24 | 7.02 | 8.52
43 | AUUCCCCUGGUCAUCCAGUGA [Fam2.1 aminoacylation ribozyme variant] | 98.5 | 6.96 | 11.6 | 6.74 | 13.2 | 14.3
44 | AUUCCCCUGGUCAUCGAAUGA [Fam2.1 aminoacylation ribozyme variant] | 2.91 | 2.24 | 2.45 | 1.96 | 2.09 | 2.15
45 | AUUCCCCUGGUCAUCGACUGA [Fam2.1 aminoacylation ribozyme variant] | 1.59 | 1.54 | 1.23 | 1.64 | 1.25 | 1.41
46 | AUUCCCCUGGUCAUCGUGUGA [Fam2.1 aminoacylation ribozyme variant] | 37.6 | 2.66 | 5.03 | 3.33 | 5.32 | 5.65
47 | AUUCCCCUGGUCCUCGAGUGA [Fam2.1 aminoacylation ribozyme variant] | 42.5 | 3.65 | 6.08 | 3.77 | 7.24 | 6.87
48 | AUUCCCCUGUUCAUCGAGUGA [Fam2.1 aminoacylation ribozyme variant] | 12.4 | 4.07 | 5.28 | 4.28 | 5.39 | 7.62
49 | AUUCCCGUAGGUCAUCGGGUG [Fam2.2 aminoacylation ribozyme variant] | 259 | 17 | 25.3 | 20.2 | 32.4 | 25.3
50 | AUUCCGCUAGGUCAUCGGGUG [Fam2.2 aminoacylation ribozyme variant] | 128 | 8.43 | 14 | 8.93 | 17.7 | 13.6
51 | AUUCGCCAAGGUCAUCGGGUG [Fam2.2 aminoacylation ribozyme variant] | 91.8 | 7.65 | 10.7 | 6.69 | 14.7 | 11
